Data set [1] has as its target T1, alpha-fetoprotein (AFP) (Homo sapiens) (UniProt P02771).
T1 sequence: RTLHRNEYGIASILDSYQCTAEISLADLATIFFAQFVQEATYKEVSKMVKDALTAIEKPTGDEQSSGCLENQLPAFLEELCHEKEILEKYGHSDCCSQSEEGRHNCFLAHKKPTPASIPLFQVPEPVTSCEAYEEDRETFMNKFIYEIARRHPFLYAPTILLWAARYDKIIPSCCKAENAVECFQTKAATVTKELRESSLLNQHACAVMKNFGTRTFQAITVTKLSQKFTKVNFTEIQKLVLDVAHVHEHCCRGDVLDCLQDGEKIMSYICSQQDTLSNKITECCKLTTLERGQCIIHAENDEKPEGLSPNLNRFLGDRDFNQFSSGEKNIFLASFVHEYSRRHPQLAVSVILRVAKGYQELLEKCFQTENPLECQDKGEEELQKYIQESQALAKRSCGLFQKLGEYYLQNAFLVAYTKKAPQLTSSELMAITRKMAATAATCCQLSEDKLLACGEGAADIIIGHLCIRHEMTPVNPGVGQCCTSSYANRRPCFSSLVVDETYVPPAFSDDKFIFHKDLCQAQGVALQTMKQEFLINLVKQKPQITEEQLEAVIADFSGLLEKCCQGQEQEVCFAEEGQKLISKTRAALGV
Put plainly: magnetic bead binding assay, antiF-POD, chronoamperometry. To be noted: no amplification; 1:1 fit; 1x PBS, 25 °C, 30 min, 1300 rpm; 60 µg AFP-modified magnetic beads in 250 µL (effective AFP about 34 nM); washes 1x PBS 0.01% Tween 20; pH not stated.

Data set [2] addresses T2, alpha-fetoprotein (AFP) (Homo sapiens, UniProt P02771 19-609).
T2 sequence: T1 sequence
The data set is described as follows: magnetic bead binding assay, RCA amplification, antiF-POD, chronoamperometry; apparent Kd; RCA after binding; Langmuir fit (abstract prints 189 nM); 1x PBS, 25 °C, 30 min, 1300 rpm; 60 µg AFP-modified magnetic beads in 250 µL (effective AFP about 34 nM); washes 1x PBS 0.01% Tween 20; pH not stated. To be noted: protein: native.

Data set [3] addresses T2, alpha-fetoprotein (AFP). The data set is described as follows: magnetic bead binding assay, TdT amplification, SA-POD, chronoamperometry; apparent Kd; TdT elongation after binding; Langmuir fit; 1x PBS, 25 °C, 30 min, 1300 rpm; 60 µg AFP-modified magnetic beads in 250 µL (effective AFP about 34 nM); washes 1x PBS 0.01% Tween 20; pH not stated. To be noted: protein: native.

Data set [4] concerns the target T2, alpha-fetoprotein (AFP). Put plainly: magnetic bead binding assay, antiF-POD, chronoamperometry; no amplification; Hill n = 1.6 ± 0.4; 1x PBS, 25 °C, 30 min, 1300 rpm; 60 µg AFP-modified magnetic beads in 250 µL (effective AFP about 34 nM); washes 1x PBS 0.01% Tween 20; pH not stated. To be noted: protein: native; label: 5' FITC.

Four molecules from paper PMC7277757, “On the Electrochemical Detection of Alpha-Fetoprotein Using Aptamers: DNA Isothermal Amplification Strategies to Improve the Performance of Weak Aptamers” can be followed below.

Regarding “TCAGGTGCAGTTCTCGACTCGGTCTTGATGTGGGT [AFP-S-FITC]”, in data set [1], the Kd amounted to 713 nM.

B1: AFP-S-RCA (ssDNA)
DNA: TCAGGTGCAGTTCTCGACTCGGTCTTGATGTGGGTTTTTTTTTTTAGATAGTAAGTGCAATCT
Regarding B1, the Kd in the data set with alpha-fetoprotein (AFP) [2] was 188 ± 33 nM.

B2: AFP-L-TdT (ssDNA)
DNA: GGCAGGAAGACAAACAAGCTTGGCGGCGGGAAGGTGTTTAAATTCCCGGGTCTGCGTGGTCTGTGGTGCTGTTTTTTT
For B2, in the data set with alpha-fetoprotein (AFP) [3], the Kd amounted to 32 ± 11 nM.

B3: AFP-L-FITC (ssDNA)
DNA: GGCAGGAAGACAAACAAGCTTGGCGGCGGGAAGGTGTTTAAATTCCCGGGTCTGCGTGGTCTGTGGTGCTGT
In the data set with alpha-fetoprotein (AFP) [4], B3 came in with a Kd of 526 ± 101 nM.
